experiment: yeast display, Sf9 membrane polyspecificity reagent, FACS + sequencing; frameworks hold sequencing errors
In short: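 Sorting gates, low and high (top ~1%), were placed on anti-HA fluorescence to track expression and on streptavidin fluorescence to track reagent binding. A clone's polyreactivity label is taken from the gate it came out of. The reagent was 10% biotinylated, detergent-solubilized Sf9 membrane, applied for 1 hour at 4 °C to galactose-induced yeast display cells.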

Sequence | polyreactivity (PSR sort gate)
QVQLVESGGGLVQAGGSLRLSCAASGFTFSYYGMVWYRQAPWKERELVAGISRGGSTYYADSVKGRFTISRDNAKNTVYLQMNSLKPEDTAVYYCAAAERLRHGLKFDYWGQGTQVTVSS | high polyreactivity
QVQLVQSGGGLLQAGGSLRLSCAASGSINIYNDMGWNRQATGKERELVAAITSSGGSTYYADSVKGGFTISRDNGKNTVYLQMNSLKPEDTAVYYCAADYVDHKVWYDYWGHGTQVTVSS | low polyreactivity
QLQLVESGGGLVQAGGSLRLSCAASGFTFQYYAMGWYRQAPCKERELVAVISRSGGRTYYADSVKGRFTISRDNAKYTVYLQMYSLKPEDTAVYYCAALSQPGQRDDNQYDYWGQGTQVTVSS | high polyreactivity
QVQLVESGGGLVQAGGSLRLSCAASGFTFTWYVMGWYRQAPGKERELVAAISRSGGSTYYADSVKGRFTISRDNAKNTVYLQMNSLKPEDTAVYYCAAVGTSRYDYWGQGTQGTVSS | high polyreactivity
QVQLVESGGGLVQAGGTLRLSCAASGGTFATYAMGWCRQGPGKERELVAAITQSGGTTYYADSVKRRFTISRDNANNTVYLQMNSLKPEDTAVYYCNAEASQAVYYAYEYWGQGTQVTVSS | low polyreactivity
QVQLVESWGGLVQAGGSLRLSCAASGITFYVYAMGWYRQAPGKERELVAAISSGSSTYYADSVKGRFTISRDNAKKTVYLQMNSLKPEDTAVYYCAARYRKYLSEYWGQGTQVTVSS | high polyreactivity
QVQLVESGGGLVQAGGSLRLSCAASGSTFRRNAMGWDRQAPGKERELVATISPGARTNYADSVKGRFTISRDNAKNTVYLQMNSLKPEDTAVYYCNAEYTLLYPLYDYWGQGTQVTVSS | low polyreactivity
QVQLGESGGGLVQAGGSLRLSCAASGSIFVRNAMGWYRQAPGKERELVAAINGRGTSTYYADSVKGRFTISRDNAKNTVYLQMNSLKPEDTAVYYCATSLTSPRRAYGYWGQGTQVTVSS | high polyreactivity
QVQLVESGAGLVQAGGSLRLSCAASGSIFFSYAMGWSRQAPGKERELVAGINWSGGSTYADSVKGRFTISRDNAKNTVYLQMNSLKPEDTAVYYCAAKYYSERSRYHYWGQGTQVTVSS | low polyreactivity
QVQLVESGGGLVQAGGSLRLSCAASGSIFYAYAMGWYRQAPGKERELVAAIRSSDSRTYYADSVKGRFTISRDNAKNTVYLQMNSLKPEDTAVYYCAADGSRKVKFDYWGQGTQVTVSS | high polyreactivity
QVQLVESGGGLVQAGGSLRLSCAASGSIFYRYTMGWYRQAPVTERELVAVISRRGGSTYYADSVKGRFTISRDNEKNTVYLQMNRLKPEDTAVYYCAVPQYRTSVRQGNTLWDDYWGQGTQVTVSS | high polyreactivity
HVQLVESGGGLVQAGGSLRLSCAASGFTFPLYALGWYRPAPGKEREVVAAIRSSGGSTYYADSVKGRFTISRDKAKNTVNLQMNSLKPEDTAVSYCAKVRSTRRLDTYYYWGQGTQVTVSS | high polyreactivity
QVQLVESGGGLVQAGGSLRLSCAASGIIFYKYAMGWYRQAPGKERELVAAITGRGGSTYYADSVKGRFTISRDNAKNTVYLRMNSLKPEDTAVYFCAASQRSGHPSYDYWGQGTQVTVSS | high polyreactivity
QVQLVESGGGLVQAGGSLRLSCAASGSTFYWYTMGWYRQAPGKERELVARISSSGSTNYADSVKGRFTISRDNAKNTVYFQMNSLKPEDTAVYYCNKDWIYRGYDYWGQGTQVTVSS | high polyreactivity
QVHLVESGGGLVQAGGSLRLICAASGGTLWVNTMGWYRQAPGKERELVAAISRRGGSTYYADSVKGRFTISRDNAKNTVYLQMNSLKPEDTAVYYCAKGYSSHYWWAYDSWGQGTQVTVSS | high polyreactivity
QVQLQESGGGLVQAGGSLRQSYAASGYIFPSLAMGWYRQAPGKEREFVAAIGRGSTNNYADSVKGRFTISRDNAKNTAYLQMNSLKPEDTAVYYCAAAASPLNRHLYWGQGTQVTVSS | low polyreactivity
QVQLVESGGGLVQAGGRLRLSCAASGRIFDRYAMGWYRQAPGKERELVAGISFSGGRTYYADSVKGRFTISRDNAKNTVYLQMNSLKPEDTAVYYCNTVTSGFLSYDYWGQGTQVTVSS | high polyreactivity
QGQLVESGGGLVQAGGSLRLSCAASGSIFGNAMGWYIQAPGKEREFVAAISSSGSSTYYADSVKGRFTISRDNAKNTVYLQMNSLKPEDTAVYYCAARPPRVSYEYWGQGTQVTVSS | high polyreactivity
QVQLVESGGGLVQAGGSLRLSCAASGFIFGFYAMGWYRQAPGKERELVADITSSGGSTYYADSVKGRFTISRDNAKYSVYLQMNSLKPEDTAVYYCAADGWWHNFYPGTGLDYWGQGTQVTVSS | low polyreactivity
QVQHVESGGGIDQAGGSLRLSCAASGSTSVQYAMGWYRQATGKERELVAAISLSVGSTYYADSVKGRFTISRDNAKITVYLQMNCLKPEDTAVYYCASGYPPEDPEDYWGQGTQVTVSS | low polyreactivity
QVQLVESGGGLVQAGGSLRLSCAASGINFRYYAMGWYRQAPGKERELVARISTRGGSTYYADSVKGRFTISRDNAKNTVYLQMNSLKPEDTAVYYCAAVNGLYYHKYGYYWGQGTQVTVSS | high polyreactivity
QVQLVESGGGLVQAGGSLRLSCAASGSTLAQYAMGWYRQAPGKETELVADISWSGGSTYYADSVKGRFTISRDNAKNTVYLQMNSLKPDDTAVYYCNAYAFDSVREEDYWGQGTQGTVSS | low polyreactivity

Sequence | polyreactivity (PSR sort gate)
RLVQAGGSLRLSCAASGRIFGTYAMGWYRQAPGKERELVAAITQSGGRTYYADSVKGRFTISRDNAKNSVYLQMNSLKPEDTAVYYCNKVTYRGIGLGYDYWGQGTQVTVSS | high polyreactivity
QVQLVESGGGLVQAGGSLRLSFDASGLIFWGYAMGWYRQAPGKERELVAAISSSCGSTYYADSVKGRFTISRDNAKNTVYLEMNSLQPEDTAVYYCNADYTYYPGYDFWGQGTQVTVSS | low polyreactivity
QVQLVESGGGLVQAGGSLRLSCAASGRILVWYAMAWYRQAPGKERELVASISSTGGSTYYADSVKGRFTISRDNAKNTVYLQMNSLKPEDTAVYYCAAVIRSQDGRGYDYWGQGTQVTVSS | high polyreactivity
QVQLVESGGGLVQAGGSLRLSCAASGRTFVANAMGWYRQAPGKEREFVAAITGGDSTYYADSVKGRFTISRDNAKNTVYLQMNSLKPEDTAVYYCAAPYNFWNFFDLIYVWDGYDYWGQGTQVTVSS | low polyreactivity
QVHLVESGVGLVQARGSLRLSCASSGSTFGGNAMGWYRQAPGTERELVAAIDSGGGTNYADSVKGRFTIARDNAKNTVYLQMTSLKPEDTAVYYCNADWAVRSTQNSSSGHDYWGQATQVTVSS | low polyreactivity
QVQLVESGGGLVQAGGSLRLSCAASGSTFRGYAMGWYRQAPGKERELVAAISWSAGSTYYADSVKGRFTISRDNAKNTVYLQMNRLKPEDTAVYYCAKASVALRYYSYSLGRDYWGQGTQVTVSS | low polyreactivity
QVQLVESGGGLVQAGGSLRLSCAASGSTLSQNAMGWYRQAPGKEREFVADISGAGDSTYYADSVKGRFTISRDNAKNTVYLQMISLKPDDTAVYYCATPSPHVGLKWEYDYWGQGTQVTVSS | low polyreactivity
QVQLVESGGGLVQAGGSLRLSCAASGSIFGFYAMGWYRQAPGKERELVASISSSGDSTYYADSVKGRFTISRDNAKNTVYLQINSLKPEDTAVYYCAAVVYDIYGYEFDYWGQGTQVTVSS | low polyreactivity
QVQLVESGGGLVQAGGSLRLSCAASGRIFGQYAMGWYRQAPGKERELVAAITYSTGSTSYADSVKGRFTISRDNAKNTVYLQMNSLKPEDTAVYYCAAGGGRWYYPKRGSPYGFYYWGLGTQVTVSS | high polyreactivity
QVQLVESGGGLVQAGGSLRLSCAASGRIFGPYAMGWYRHAPGKERELVAAISSSGSTTYYADSVKGRFTISRDNAKNTVYLQMNSLKPEDTAVYYCAKPSSRDSPYDYWGQGTQVTVSS | low polyreactivity
QVQLVESGGGLVQAGGSLRLSCAASGRTFRTYTMGWYRQAPGKERELVAAISRGGSTNYADSVKGRFTISRDNAKNTVYLQMNSLKPEYTAVYYCNAKASFWSPYDDWGQGTQVTVSS | high polyreactivity
QVQLVESGGGLVQAGGSLRLSCAASGSTFQINAMGWYRQAPGKERELVARNSGSGSRTYYADSVKGRFTISRYNAKNTVSLQMNSLKPEDTAVYYCAARGTGKGYDSWGQGTQVTVSS | high polyreactivity
QVQLEESGGGLVQAGGSHRLSCAASGQIFRHYAMGWYRQAPGKEREFVAAITGSGGNTYYADSLKGRFTISRDNAKNTVYLQMNSLKPEDTAVYYCAVRAYPSYPRGVYAYYYWGQGTQVTVSS | high polyreactivity
QVQLVESGGGLVQAGGSLRLSCAASGRIFNLYAMGWYRQAPGKERELVAGIRWSTGSTYYADSVKGRFTISRDNAKNTVYLQMNSLKPEDTAVDYCAVRYYCSGRYYYTYYSWGQGTLVTVSS | high polyreactivity
QVQLVESGGGLVQAGGSLRLSCAASGFTFYWYAMGWYRQAPGKEREFVAAIDQSGGSTYYADSVKGRFTISRDNAKNTVYLQMNSLKPEDTAVYYCAAAYLRYVSTQYHYDYWGQGTQVTVSS | low polyreactivity
QVQLVESGGGLVQAGGSLRLSCAASGRTFHYYAMGWYRQAPGKERELVAAINFSGDNTYYADSVKGRFTISRDNAKNTVYLQLNSLKPEDTAVYYCAARREYARYKGYYYWGQGTQVTVSS | low polyreactivity
QVQLVESGGGLVQAGGSLRLSCAASGLILRKYAMGWYRQAPGKEREFVAAITQTGSRTYYADSVKGRFTISRDNAKNPVYLQMNSLKPEDTAVYYCAADLPRWGSYGYGKMDHWGQGTQVTVSS | high polyreactivity
QVQLVESGGGLVQAGGSLRLSCAASGNTFRWYVMGWYRQAPGKERELVAAITSSGSTTYYADSVKGRFSISRDNAKNTVYLQMNSLKPEDTAVYYCAARNYGPYDYWGQGTQVTVSS | low polyreactivity
QVQLVESGGGLVQAGGSLRLSCAASGRTLNAYAMGWYRQAPGKERELVAAITGDDGSTYYADSVKGRFTISRDNAKNTVYLQMNTLKPEDTAVYYCAAVTFSYDGYDYWGQGTQVTVSS | low polyreactivity
QVQLVESGGGLVQAGGSLRLSCAASGLIFVPYAMGWYRQAPGKERELVATISARGASTYYADSVKGRFTISRDNAKNTVYLQMNSLKPEDTAVYYCATRNYGRASYDYWGQGTQVTVSS | high polyreactivity
QVHLVESGGGLVQAGGSLRLSCPASGSTIRNYAMGLYRQAPGKERELVAAITKRGGTTYYADSVKGRFTISRDNAKNTVYLQMNSLKPEDTAVYYCAIGYNSSPFDYWGQGTQVTVSS | high polyreactivity
